Assay results as given in article PMC3724861.

Target: T1, Caup homeodomain (Drosophila melanogaster) (UniProt P54269)
T1 sequence: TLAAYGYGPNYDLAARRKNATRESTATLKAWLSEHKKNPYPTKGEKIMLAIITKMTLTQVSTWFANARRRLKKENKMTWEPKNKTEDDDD
Conditions: PBM

Row | Sequence | binding signal (minimum E-score of the two 8-mers)
1 | AACATGTAA (double strand) [9-mer AACATGTAA] | 0.468
2 | AACATGTAC (double strand) [9-mer AACATGTAC] | 0.48
3 | AACATGTAG (double strand) [9-mer AACATGTAG] | 0.476
4 | AACATGTAT (double strand) [9-mer AACATGTAT] | 0.469
5 | ACATGTACA (double strand) [9-mer ACATGTACA] | 0.469
6 | ATACATGTA (double strand) [9-mer ATACATGTA] | 0.469
7 | ATACATGTC (double strand) [9-mer ATACATGTC] | 0.469
8 | ATGTACATG (double strand) [9-mer ATGTACATG] | 0.469
9 | CTACATGTA (double strand) [9-mer CTACATGTA] | 0.476
10 | CTACATGTC (double strand) [9-mer CTACATGTC] | 0.476
11 | GACATGTAA (double strand) [9-mer GACATGTAA] | 0.468
12 | GACATGTAC (double strand) [9-mer GACATGTAC] | 0.477
13 | GTACATGTA (double strand) [9-mer GTACATGTA] | 0.48
14 | TACATGTAA (double strand) [9-mer TACATGTAA] | 0.468
15 | TACATGTCA (double strand) [9-mer TACATGTCA] | 0.461
